Measured values reported in patent US8652467B2, “Dek protein compositions and methods of using the same” (The Regents of the University of Michigan, priority 2005, dated 2014).
Entries after “also recorded” stand apart in the source; their conditions may differ.

Legend:
[1] = system: Human Microvascular Endothelial Cells (HMVEC); assay: HMVEC chemotaxis (cell migration assay); format: cell-based; details: 3.5 μg purified recombinant DEK vs purification buffer control
Method: Cell migration assay (See, e.g., Koch et al., Arthritis & Rheumatism 44: 31-40, (2001)) was performed with either 3.5 μg of purified, recombinant DEK diluted in PBS, or with just the purification buffer diluted in PBS (control). Nine high-power fields were assayed per sample, and results expressed as the number of cells migrating per well. Error bars show the mean deviation of two separate experiments (*p=0.0249).

[2] = system: monocyte-depleted peripheral white blood cells; assay: In vitro migration assay with monocyte-depleted peripheral white blood cells; format: cell-based, human
Method: (A). […] Day 12 MDM grown in 10% serum were maintained for 12 h in serum-free conditioned media alone or with 10 ng/ml of recombinant IL-8. Supernatants were harvested, and secreted DEK detected in the supernatant by Western blot using DEK-specific monoclonal antibody. (B). DEK is a chemoattractant. Monocyte-depleted peripheral white blood cells were prepared. 1×10^5 cells in 100 μl RPMI were placed in the upper chambers of a 24-well chemotaxis microchamber plate with pore size of 3 μM. Lower chambers contained RPMI medium with various concentrations of recombinant DEK (made in baculovirus), recombinant GLI-2 control protein (also made in baculovirus), or no protein control (C′). After 1 h, the number of fluorescently labeled migrating cells in the lower chamber was determined at 485 nM/535 nm wavelengths by Tecan GENios (Phenix, Austria). The results are expressed as the average fold increase of the number of cells migrating toward DEK or GLI-2 compared to control wells containing medium only. Data shown using 34 nM and 68 nM DEK are the average of three different donors, while data using 136 nM DEK are the average of six different donors. […] (C). […] Fluorescence profiles were recorded by FACS analysis. The results are expressed as the average fold increase of the percentage of cells migrating toward DEK vs. control wells containing medium only. […]

[3] = system: MDM and HeLa cells; assay: Uptake of recombinant DEK by cells; format: cell-based, human; details: MDM (12-day) and HeLa cells
[4] = system: purified neutrophils (PMN); assay: In vitro migration assay with purified neutrophils; format: cell-based, human; details: various concentrations of recombinant DEK in lower chamber; 79 nM vs control
Method: Purified neutrophils (PMN) were treated with IL-8 (50 nM), the CXCR2 small molecule inhibitor SB225002 (3 μM), DEK (79 nM), IL-8 plus SB225002, or DEK plus SB225002 for 5 min at room temperature before and then during the migration assay. After 1 h, the number of fluorescently labeled migrating cells in the lower chamber was determined at 485 nM/535 nm wavelengths by Tecan GENios (Phenix, Austria). […] The results are expressed as the average fold increase in the number of cells migrating toward DEK compared to control wells containing medium only. White blood cells were isolated from venous blood from healthy donors as described above, and were depleted of monocytes by adherence to plastic for 2 h as described in the Cell Preparation section. […] The cells were washed and resuspended at 1×10^6 cells/ml in serum-free RPMI medium, and 1×10^5 labeled cells in 100 μl were added to the upper chamber of a 24-well Transwell chemotaxis insert with pore size of 3 μm or 5 μm (Corning, N.Y.). The lower chambers contained serum-free RPMI medium alone, recombinant DEK made in baculovirus, or a deletion mutant of the β form of human GLI-2 (See, e.g., Smith et al., J Virol 75, 2301-13 (2001)) produced in baculovirus as the control protein. After 30 min to 1 h, the number of fluorescently labeled migrating cells in the lower chamber was determined at […] wavelength using a Tecan GENios plate-reader (Phenix, Austria). The results were expressed as the average fold increase of the number of cells migrating toward lower chambers containing DEK divided by the number of cells migrating toward the control wells (medium alone). Forty ml of venous blood was collected from healthy volunteers into a 50 ml sterile syringe containing a mixture of 7 ml 0.25 M Citrate (0.17 M NA Citrate and 0.083 M Citric Acid) and 6% Dextran in PBS buffer. The blood was incubated for 30 min at room temperature and the upper phase was collected and further separated by Ficoll as described above. The neutrophil fraction was collected and washed with HBSS buffer and then pelleted again. […]

B1: DEK: full-length recombinant DEK protein produced in baculovirus (protein, UniProt P35659 1-375, looked up)
chain: MSASAPAAEGEGTPTQPASEKEPEMPGPREESEEEEDEDDEEEEEEEKEKSLIVEGKREKKKVERLTMQVSSLQREPFTIAQGKGQKLCEIERIHFFLSKKKTDELRNLHKLLYNRPGTVSSLKKNVGQFSGFPFEKGSVQYKKKEEMLKKFRNAMLKSICEVLDLERSGVNSELVKRILNFLMHPKPSGKPLPKSKKTCSKGSKKERNSSGMARKAKRTKCPEILSDESSSDEDEKKNKEESSDDEDKESEEEPPKKTAKREKPKQKATSKSKKSVKSANVKKADSSTTKKNQNSSKKESESEDSSDDEPLIKKLKKPPTDEELKETIKKLLASANLEEVTMKQICKKVYENYPTYDLTERKDFIKTTVKELIS
modifications: full-length
notes: full-length recombinant DEK protein produced in baculovirus
- endothelial cell chemotaxis [1]: does attract endothelial cells
- migration of CD8+ cells and CD56+ cells towards DEK ([2]; 79 nM DEK, 1 hour, FACS analysis, vs medium only): statistically significant
- migration of white blood cells toward DEK ([2]; 34, 68, 136 nM DEK in lower chamber, 1 h, vs GLI-2 control protein or media alone): statistically significant; also recorded: increase in a dose-dependent fashion
- uptake by cells [3]: can be taken up
- neutrophil migration toward DEK [4]: statistically significant; also recorded: specifically migrate toward DEK in a dose-dependent manner
